# Measurements as given in article PMC7958597, “In Vivo Biodistribution and Efficacy Evaluation of NeoB, A Radiotracer Targeted to GRPR, in Mice Bearing Gastrointestinal Stromal Tumor” (Cancers, 2021).
# Several values for one entry are separate records, joined by “and”; a condition that tells them apart may be missing. Equal entries are not always repeated. Where two headings read alike, the source gives them in different places.
# Assays:
# [1] = Tolerability in the efficacy sub-study (body weight, pancreas histology HES); type: in vivo, mice; conditions: 400 or 800 pmol, 37 MBq once a week for 3 weeks
# Method: (§1) Efficacy was evaluated on 40 mice when the tumor volume reached ~100 mm^3. Control mice were intravenously injected with saline (Control group, n = 13), whereas treated mice received either 400 pmol (400 pmol group, n = 13) or 800 pmol (800 pmol group, n = […]) of 37 MBq of [^177Lu]Lu-NeoB once a week for 3 weeks. Tumor size was recorded 3 times per week before and after therapy administration and 5 times per week during the 3 weeks of the therapy administration. When a tumor volume exceeding 1500 mm^3 the animal was removed from the study and euthanized by CO2 inhalation. Pancreas was then frozen, 10 µm-thick slices were stained using hemato-eosin saffron (HES) and subsequently analyzed by a histopathologist.
# [2] = test system: PC-3 bearing mice; conditions: cited from earlier work
# Description: In this study, we evaluate for the first time the theragnostic potential of [^177Lu]Lu-NeoB for tumor treatment by performing biodistribution and therapeutic studies in mice bearing GIST. In accordance with above mentioned finding, injected mass ranging from 200 to 800 pmol were employed. […] Indeed, in PC-3 be ...
# [3] = SPECT-CT quantification of tumor uptake; type: in vivo, mice; conditions: male, SCID, mouse, GIST-882 tumor, iv, total radioactivity, 37 MBq i.v., 24 h post injection, n = 3
# Method: Dual single photon emission computed tomography and x-ray computed tomography (SPECT-CT) imaging were performed in a subset of 6 mice of the therapeutic efficacy sub-study (3 from 400 pmol group and 3 from 800 pmol group). Acquisitions were performed the day after [^177Lu]Lu-NeoB injection (24 h post injection). SPECT-CT acquisitions were performed using a dedicated camera (nanoscan SPECT/CT, Mediso, Budapest, Hungary). Animals were placed on a pathogen-free animal handling system (MulticellTM, Mediso, Budapest, Hungary) under gas anesthesia (isoflurane 1–2%). Whole body imaging was performed. SPECT duration was of approximately 35 min, and CT acquisition of 5 min (at 35 kvp). Acquisitions were reconstructed with Nucline software using Monte Carlo reconstruction and scatter and attenuation correction, corrected for decay and expressed as % injected dose per gram (% ID/g). Image analysis was performed using Vivoquant software (version 3.5, Invicro, Boston, MA, USA).
# [4] = test system: GIST-882 tumor; assay: Therapeutic efficacy (tumor growth, survival without reaching limit tumor volume); type: in vivo, mice; conditions: for mice excluded due to tumor volume over the limit of 1500 mm^3: 100 days of follow-up, 5 out of 13 control mice reached the limit; for tumor volume in comparison to control group: 37 MBq i.v. once a week for 3 weeks, day 0-26
# Method: (§2) All procedures were performed in accordance with the institutional guidelines and approved by the animal care and use committee of Grenoble University (APAFIS#6544-2016082615349282 v8). The study was performed on 6-weeks old male SCID mice (Charles River). A total of 82 mice were used, 42 for the biodistribution sub-study and 40 for the therapy sub-study. Mice were subcutaneously inoculated into the left flank with GIST-882 (2 to 4 × 10^6) in a 1:1 PBS/Matrigel® (Corning, Corning, NY, USA) mixture.
# as §1
# [5] = Biodistribution of [^177Lu]Lu-NeoB by organ sampling and gamma counting; type: in vivo, mice; conditions: male, mouse, iv, total radioactivity
# Method: as §2
# (§3) Biodistribution of [^177Lu]Lu-NeoB was evaluated when the tumor volume reached ~200 mm^3. The biodistribution was evaluated at 7 time points (1 h, 4 h, 4 h + block, 24 h, 48 h, 96 h, and 168 h). The compound was injected intravenously (100 µL/200 pmol/~0.8 MBq per mice). Moreover, an excess of 40 nmol unlabeled NeoB was co-injected in the mice of the 4 h + block condition. At the selected time point, mice were euthanized by CO2 inhalation, and the main organs and fluids were sampled and weighed. The activity was determined using a gamma well counter (Wizard^2 PerkinElmer, Waltham, MA, USA), the results were corrected for background, decay and sample weight, and the data were expressed as a % ID/g (percentage of injected dose per gram of tissue).
# [6] = test system: SCID mice bearing GIST-882 tumors (GRPR expressing); assay: as above; type: in vivo
# Method: as §2, §3
# [7] = Stability of the radiolabeled preparation by radio-HPLC (RCP); type: physicochemical; conditions: 24 h after labeling; Symmetry C18, H2O/acetonitrile 0.1% TFA gradient
# Method: ^177Lu^3+ in aqueous 0.04 M HCl solution was purchased from ITG (Garding, Germany). Chemicals for radiolabeling were of trace metal® grade. Radiochemical purity (RCP) of each radiolabeled solution was determined using a high performance liquid chromatography (HPLC) apparatus (Shimadzu, France) equipped with NaI (Tl) scintillation detectors (LabLogic, UK). The radiolabeling was performed as previously described (25). For the biodistribution sub study, 92 nmol of NeoB was radiolabeled with 370 MBq of ^177LuCl3 and the reaction was then incubated at 95 °C for 7 min. The concentration was then adjusted at 200 pmol/100 µL (0.8 MBq) and a sterilizing filtration was performed. A similar protocol was employed for the therapy sub-study, using 20 nmol of NeoB and 1850 MBq of Lu-177. The concentration was then adjusted at 400 pmol/100 µL (37 MBq). A second solution of 800 pmol per 100 µL (37 MBq) was obtained by the addition of unlabeled NeoB peptide. A 0.22 µm sterile filtration was then performed. Radiochemical purity (RCP) was determined immediately after labeling and at 24 h by radio-HPLC analysis using an analytical reverse-phase column (Symmetry C18, 5 μm, 150 × 4.6 mm). A gradient elution was performed using solvent A (H2O, 0.1% TFA) and solvent B (acetonitrile, 0.1% TFA) as mobile phase at a flow rate of 1 mL/min.
# [8] = from time activity curve 1-168 h, 200 pmol i.v.
smiles,measurement,setting,value
"CC(C)CC(CC(C)C)NC(=O)[C@H](Cc1cnc[nH]1)NC(=O)CNC(=O)[C@@H](NC(=O)[C@H](C)NC(=O)[C@H](Cc1c[nH]c2ccccc12)NC(=O)[C@H](CCC(N)=O)NC(=O)[C@@H](Cc1ccccc1)NC(=O)COCC(=O)Nc1ccc(CNC(=O)CN2CCN(CC(=O)O)CCN(CC(=O)O)CCN(CC(=O)O)CC2)cc1)C(C)C [[^177Lu]Lu-NeoB, metal not drawn]",total body weight of treated animals,[1],No change
same,"off-target effect (inflammation, fibrosis, architecture alteration) on HES stained pancreatic sections",[1]; end of follow up,no off-target effect
same,pancreas half-life,[2]; 200 pmol,11 h
same,tumor half-life in prostate tumors,[2]; 200 pmol,28 h
same,tumor-to-pancreas ratio,[2]; as early as 4 h after injection of 200 pmol,> 1
same,tissue uptake at 24 h,[3]; 400 pmol group,~11 %ID/g
same,tissue uptake at 24 h,"[3]; 800 pmol group, p < 0.05 vs 400 pmol",~7 %ID/g
same,tumor regression,"[4]; 400 pmol dose, 37 MBq once a week for 3 weeks",complete tumor regression
same,mice excluded due to tumor volume over the limit of 1500 mm^3,[4]; 400 pmol group,none
same,residual tumor,"[4]; 400 pmol group, from day 65",no residual tumor volume
same,tumor volume in comparison to control group,"[4]; 400 pmol, p = 0.0001",significantly reduced
same,mice excluded due to tumor volume over the limit of 1500 mm^3,[4]; 800 pmol group,none
same,tumor volume in comparison to control group,"[4]; 800 pmol, p = 0.0066",significantly reduced
same,tissue uptake at 1 h,"[5]; SCID, GIST-882 tumor, 200 pmol/mouse, 1 h pi, 200 pmol/~0.8 MBq i.v., mean ± SD, read-out: uptake in GIST-882 tumor",21.6 ± 1.7 %ID/g
same,tissue uptake at 4 h,"[5]; SCID, GIST-882 tumor, 200 pmol/mouse, 4 h pi, 200 pmol/~0.8 MBq i.v., mean ± SD, read-out: uptake in GIST tumor",19.1 ± 3.9 %ID/g
same,tissue uptake at 24 h,"[5]; SCID, GIST-882 tumor, 200 pmol/mouse, 24 h pi, 200 pmol i.v., mean ± SD",13.4 ± 3.5 %ID/g
same,tissue uptake at 48 h,"[5]; SCID, GIST-882 tumor, 200 pmol/mouse, 48 h pi, 200 pmol i.v., mean ± SD",10.5 ± 1.6 %ID/g
same,tissue uptake at 96 h,"[5]; SCID, GIST-882 tumor, 200 pmol/mouse, 96 h pi, 200 pmol i.v., mean ± SD",5.9 ± 0.3 %ID/g
same,tissue uptake at 168 h,"[5]; SCID, GIST-882 tumor, 200 pmol/mouse, 168 h pi, 200 pmol i.v., mean ± SD",2.5 ± 0.7 %ID/g
same,tissue uptake at 4 h,"[5]; SCID, GIST-882 tumor, 4 h pi, co-injected with excess of 40 nmol unlabeled NeoB, mean ± SD, read-out: uptake in GIST tumor, 4 h + block",0.3 ± 0.1 %ID/g
same,tissue uptake at 1 h,"[5]; SCID, bladder, 200 pmol/mouse, 1 h pi, 200 pmol/~0.8 MBq i.v., mean ± SD, read-out: uptake in bladder",20.6 ± 19.7 %ID/g
same,tissue uptake at 4 h,"[5]; SCID, large bowel content, 200 pmol/mouse, 4 h pi, 200 pmol/~0.8 MBq i.v., mean ± SD, read-out: uptake in large bowel content",10 ± 3.5 %ID/g
same,tissue uptake at 1 h,"[5]; SCID, pancreas, 200 pmol/mouse, 1 h pi, 200 pmol/~0.8 MBq i.v., mean ± SD, read-out: uptake in pancreas",19.8 ± 2.6 %ID/g
same,tissue uptake at 4 h,"[5]; SCID, pancreas, 200 pmol/mouse, 4 h pi, 200 pmol/~0.8 MBq i.v., mean ± SD, read-out: uptake in pancreas",8.5 ± 2 %ID/g
same,tissue uptake at 4 h,"[5]; SCID, pancreas, 4 h pi, co-injected with excess of 40 nmol unlabeled NeoB, mean ± SD, read-out: uptake in pancreas, 4 h + block",0.1 %ID/g
same,tissue to tissue ratio,"[5]; SCID, tumor and kidney, 200 pmol/mouse, all investigated time points 1-168 h",> 1
same,tissue to tissue ratio at 96 h,"[5]; SCID, tumor and kidney, 200 pmol/mouse, at 96 h, mean ± SD, read-out: tumor-to-kidney ratio (maximum value)",112 ± 5
same,tissue to tissue ratio at 48 h,"[5]; SCID, tumor and liver, 200 pmol/mouse, at 48 h, mean ± SD, read-out: tumor-to-liver ratio (maximum value)",54 ± 5
same,tissue to tissue ratio at 168 h,"[5]; SCID, tumor and pancreas, 200 pmol/mouse, at 168 h (1 week), mean ± SD, read-out: tumor-to-pancreas ratio (maximum value)",309 ± 148
same,excreta dose per gram or mL at 4 h,"[5]; SCID, urine, 200 pmol/mouse, 4 h pi, 200 pmol/~0.8 MBq i.v., mean ± SD, read-out: uptake in urine",216 ± 193 %ID/g
same,excreta dose per gram or mL at 1 h,"[5]; urine, 200 pmol/mouse, 1 h pi, 200 pmol/~0.8 MBq i.v., GIST-882 bearing SCID mice, gamma counter, mean ± SD, read-out: uptake in urine",600 ± 155 %ID/g
same,uptake in GIST tumor,"[6]; 4 h pi, 200 pmol/~0.8 MBq i.v., mean ± SD",19.1 ± 3.9 % ID/g
same,decrease of uptake in GIST tumor by co-injection of unlabeled NeoB,"[6]; 4 h pi, 40 nmol unlabeled NeoB",> 98%
same,"uptake in GIST tumor, 4 h + block","[6]; 4 h pi, co-injected with excess of 40 nmol unlabeled NeoB, mean ± SD",0.3 ± 0.1 % ID/g
same,"uptake in adrenals, blood, GIST tumor, large and small bowel, pancreas and stomach when co-injected with excess unlabeled NeoB","[6]; 4 h pi, p < 0.05, multiple t tests, Holm-Sidak",significantly reduced
same,tumor-to-pancreas ratio (maximum value),"[6]; at 168 h (1 week), mean ± SD",> 300
same,half-life in pancreas,[6]; [8],2.41 h and 2.4 h
same,half-life of retention in GIST tumor,[6]; [8],40.19 h and 40 h
same,stability after labeling (radiochemical purity by radio-HPLC),[7],remained stable
